A short description of this data set: protein stability index of a GFP-peptide fusion (GPS, HEK-293T) (PSI 1-6); higher = more stable. The conditions noted are these: c terminus: a fixed tail appended.

For 61 sequences, protein stability index results are on record in the supplement of paper PMC10567573.

± gives the standard deviation.
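Note: 24-mer peptide tiles fused after GFP, lentivirally expressed, FACS-sorted into six equal bins by GFP/DsRed ratio, decoded by Illumina sequencing, PSI is the read-weighted mean bin number.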

VIVQIKQPRKKYVQRKSDFDQTVF [NETO1] returned a protein stability index (treatment: DMSO) of 2.09 ± 0.3 and a protein stability index (treatment: MLN4924 1 uM, 8 h) of 2.09 ± 0.076.

As for VKHQCCPGCGYFCTAGNFMECQPE [EHMT1], the protein stability index reads like this: (treatment: DMSO) 3.31 ± 0.19; (treatment: MLN4924 1 uM, 8 h) 3.31 ± 0.5.

Regarding VKNSNRYDVEMTDELVGLPFSSHT [FBXO34], the protein stability index runs as follows: (treatment: DMSO) 3.8 ± 0.25; (treatment: MLN4924 1 uM, 8 h) 4 ± 0.12.

VKRKIRDESLCPQHHEALSLFCYE [TRIM39] registered a protein stability index (treatment: DMSO) of 2.38 ± 0.11 and a protein stability index (treatment: MLN4924 1 uM, 8 h) of 2.73 ± 0.3.

With VKVPGIVRLRTLLCKVLGVLFSVA [CLCN6], the protein stability index reads like this: (treatment: DMSO) 2.21 ± 0.32; (treatment: MLN4924 1 uM, 8 h) 2.19 ± 0.29.

As to VLALADEAGYYFFNGNYKVDSPKN [ADAMTSL2], the protein stability index is, setting by setting: (treatment: DMSO) 2.7 ± 0.23; (treatment: MLN4924 1 uM, 8 h) 2.86 ± 0.3.

As to VLCPECENPETDLHVNPKKQTIGN [EIF5], the protein stability index was 4.3 ± 0.3 (treatment: DMSO) and 4.54 ± 0.15 (treatment: MLN4924 1 uM, 8 h).

Turning to VLMKGQHLHLETFKAVLDGLDVLL [PRAME], the protein stability index is 2.26 ± 0.38 (treatment: DMSO) and 2.17 ± 0.1 (treatment: MLN4924 1 uM, 8 h).

On to VNPLHVDSTWLLLRRIRAESGTKG [SLC25A39], for which the protein stability index came to 2.83 ± 0.3 (treatment: DMSO) and 2.74 ± 0.33 (treatment: MLN4924 1 uM, 8 h).

Turning to VPAGEEEGELGEYRQKLLMFLEIS [VPS39], the protein stability index was determined as 3.39 ± 0.16 (treatment: DMSO) and 3.68 ± 0.22 (treatment: MLN4924 1 uM, 8 h).

For VPGEFKQDVTVVGSAGRLLAVGTD [GFOD1], the protein stability index (treatment: DMSO) came out at 4.1 ± 0.29 and the protein stability index (treatment: MLN4924 1 uM, 8 h) worked out at 3.69 ± 0.17.

VQKLVKVCTDTDRWSLISLSNKNG [TENT5C] returned a protein stability index (treatment: DMSO) of 2.64 ± 0.034 and a protein stability index (treatment: MLN4924 1 uM, 8 h) of 2.85 ± 0.26.

For VQRHNSFSPNSPQFNVSGPGLLEE [NECAB1], the protein stability index by setting is: (treatment: DMSO) 4.03 ± 0.21; (treatment: MLN4924 1 uM, 8 h) 4.33 ± 0.32.

Take VRQLERENAELESRIQEWYEFQIP [KRT36]: the protein stability index is 3.41 ± 0.16 (treatment: DMSO) and 3.43 ± 0.42 (treatment: MLN4924 1 uM, 8 h).

As to VSAATQLRHFFLVEDLVDSLKLAL [RTN2], the protein stability index is, setting by setting: (treatment: DMSO) 2.56 ± 0.72; (treatment: MLN4924 1 uM, 8 h) 2.49 ± 0.47.

In the case of VSCFLTFNIFDWLGRSLTAVFMWP [SLC29A1], the protein stability index came out at 3.03 ± 0.07 (treatment: DMSO) and 3.502 ± 0.017 (treatment: MLN4924 1 uM, 8 h).

On to VSDPQHAARLLRALSSFREESRFC [GAN], for which the protein stability index (treatment: DMSO) is 2.59 ± 0.068 and the protein stability index (treatment: MLN4924 1 uM, 8 h) was 2.72 ± 0.19.

On to VSQWYELVVFTASMEIYGSAVADK [CTDNEP1], for which the protein stability index (treatment: DMSO) was found to be 3.26 ± 0.36 and the protein stability index (treatment: MLN4924 1 uM, 8 h) came to 3.17 ± 0.48.

Take VTPFDHNIVNLLTTCSTPLLNSPP [AUP1]: the protein stability index (treatment: DMSO) came to 2.42 ± 0.12 and the protein stability index (treatment: MLN4924 1 uM, 8 h) was found to be 2.48 ± 0.39.

For VTVPSMLSRLLSRKRAVPCGACLT [OR3A1], the protein stability index amounted to 2.39 ± 0.38 (treatment: DMSO) and 2.25 ± 0.29 (treatment: MLN4924 1 uM, 8 h).

In the case of VTVTDVDIVFSKIKGKSCRTITFE [TPPP], the protein stability index was found to be 2.23 ± 0.24 (treatment: DMSO) and 2.1 ± 0.28 (treatment: MLN4924 1 uM, 8 h).

In turn, VVIRDIDERAMELLIDFAYTSQIT [KLHL20] yielded a protein stability index (treatment: DMSO) of 3.19 ± 0.55 and a protein stability index (treatment: MLN4924 1 uM, 8 h) of 2.67 ± 0.57.

Regarding VVYVKHQAQIDQYLGLVRTHINAV [RTN1], the protein stability index runs as follows: (treatment: DMSO) 2.22 ± 0.82; (treatment: MLN4924 1 uM, 8 h) 2.52 ± 0.48.

For the sequence VWKYFGFDTNAEGCILQWKKIYCR [ZBED1], the protein stability index came to 2.37 ± 0.56 (treatment: DMSO) and 2.2 ± 0.41 (treatment: MLN4924 1 uM, 8 h).

WAIPNRQINDGMGGDGDDMEIFME [BEX3]: the protein stability index (treatment: DMSO) is 4.31 ± 0.3 and the protein stability index (treatment: MLN4924 1 uM, 8 h) turned out to be 4.22 ± 0.26.

In the case of WFQNKRSKFKKLMKQGGAALEGSA [DLX1], the protein stability index reads like this: (treatment: DMSO) 2.62 ± 0.4; (treatment: MLN4924 1 uM, 8 h) 3.01 ± 0.36.

Consider WGCDLGVVTRVVTGVYPRCLHASQ [BRF1], for which the protein stability index reads like this: (treatment: DMSO) 2.89 ± 0.8; (treatment: MLN4924 1 uM, 8 h) 2.3 ± 0.46.

As for WGDLLGEDSLAALSSVPSEAQISD [SNAP91], the protein stability index is 4.76 ± 0.3 (treatment: DMSO) and 4.71 ± 0.22 (treatment: MLN4924 1 uM, 8 h).

Turning to WGLDQEQVFSLGDGVSGGFFGIRD [ZBED1], the protein stability index reads like this: (treatment: DMSO) 2.91 ± 0.6; (treatment: MLN4924 1 uM, 8 h) 3.17 ± 0.3.

In the case of WGRLLEQVGTMALWASQREKEVLR [ZBED2], the protein stability index (treatment: DMSO) came to 2.18 ± 0.16 and the protein stability index (treatment: MLN4924 1 uM, 8 h) stood at 2.36 ± 0.23.

Regarding WHEIRQGRLPRIPQVLSQEFTELL [WEE1], the protein stability index is, setting by setting: (treatment: DMSO) 2.42 ± 0.22; (treatment: MLN4924 1 uM, 8 h) 2.38 ± 0.23.

Consider WIGLFLVATGSQQSLAQPLPGNTT, for which the protein stability index came out at 2.93 ± 0.55 (treatment: DMSO) and 2.96 ± 0.35 (treatment: MLN4924 1 uM, 8 h).

As to WKVLTWLRYTLWIPLYPLGCLAEA [HACD3], the protein stability index (treatment: DMSO) amounted to 2.78 ± 0.74 and the protein stability index (treatment: MLN4924 1 uM, 8 h) amounted to 2.55 ± 0.54.

Regarding WNNVGLLGGRALMNCLPSNRTLWR [LRRC45], the protein stability index is, setting by setting: (treatment: DMSO) 2.23 ± 0.31; (treatment: MLN4924 1 uM, 8 h) 2.24 ± 0.45.

As for WRERAVEKRERALEEVERAILEMK [ZBED2], the protein stability index is 4.2 ± 0.14 (treatment: DMSO) and 4.29 ± 0.44 (treatment: MLN4924 1 uM, 8 h).

With WRLLNPGEYVVTAKAEGFTASTKN [CPXM2], the protein stability index is 3.09 ± 0.43 (treatment: DMSO) and 3.03 ± 0.29 (treatment: MLN4924 1 uM, 8 h).

On to YDPTYKDKEGPSPKVEYVWRNIIL [SCD], for which the protein stability index reads like this: (treatment: DMSO) 2.11 ± 0.47; (treatment: MLN4924 1 uM, 8 h) 2.37 ± 0.23.

Take YECTVCKKRFTRRSHLIGHQRTHS [ZNF449]: the protein stability index (treatment: DMSO) came out at 4.86 ± 0.39 and the protein stability index (treatment: MLN4924 1 uM, 8 h) came out at 5.05 ± 0.24.

As for YEKAYEGGSELGGWSLGRWTHDGI [CPXM2], the protein stability index reads like this: (treatment: DMSO) 2.49 ± 0.82; (treatment: MLN4924 1 uM, 8 h) 2.69 ± 0.16.

As to YETESETESEIESETDFETEPETA [GNAS], the protein stability index was 5.2 ± 0.17 (treatment: DMSO) and 5.22 ± 0.15 (treatment: MLN4924 1 uM, 8 h).

As to YFITLGTDLAQQQGGGNGQQQQAM [KCNA4], the protein stability index runs as follows: (treatment: DMSO) 3.04 ± 0.18; (treatment: MLN4924 1 uM, 8 h) 2.95 ± 0.67.

Take YGLQGGMAFLDKRLQVKEHQHEEI [ATL3]: the protein stability index came to 3.06 ± 0.51 (treatment: DMSO) and 3.39 ± 0.65 (treatment: MLN4924 1 uM, 8 h).

Take YGSFHQQYWLDGKIIAVGVIDILP [ATE1]: the protein stability index (treatment: DMSO) is 3.36 ± 0.39 and the protein stability index (treatment: MLN4924 1 uM, 8 h) came to 3.16 ± 0.67.

On to YHNAGTQTVPKRIPERLSIFCRDT [IQUB], for which the protein stability index is 2.51 ± 0.28 (treatment: DMSO) and 3.04 ± 0.8 (treatment: MLN4924 1 uM, 8 h).

As for YHSPELTTPPGHGTLDNSKSMKPY [NEUROD6], the protein stability index runs as follows: (treatment: DMSO) 2.87 ± 0.65; (treatment: MLN4924 1 uM, 8 h) 3.7 ± 0.67.

YIKTPLFNPEVAKYLKVPQDPLKF [IQUB]: the protein stability index was 2.42 ± 0.66 (treatment: DMSO) and 2.57 ± 0.36 (treatment: MLN4924 1 uM, 8 h).

As to YILLVTSDVLTISGTIMKIGIEAK [MCOLN1], the protein stability index was found to be 3.09 ± 0.5 (treatment: DMSO) and 3.17 ± 0.39 (treatment: MLN4924 1 uM, 8 h).

As to YIVAGSARQHALYIWEKSIGNLVK [RBBP5], the protein stability index worked out at 2.22 ± 0.25 (treatment: DMSO) and 2.14 ± 0.47 (treatment: MLN4924 1 uM, 8 h).

As to YIWEKSIGNLVKILHGTRGELLLD [RBBP5], the protein stability index is, setting by setting: (treatment: DMSO) 2.65 ± 0.52; (treatment: MLN4924 1 uM, 8 h) 3.09 ± 0.29.

As to YLLMVTVILLPYVSKVTGWCRDRL [TMEM175], the protein stability index by setting is: (treatment: DMSO) 3.27 ± 0.62; (treatment: MLN4924 1 uM, 8 h) 3.22 ± 0.66.

Regarding YLRCIQSEVSFEGAYGNLKRLYDK [SMG5], the protein stability index turned out to be 2.61 ± 0.26 (treatment: DMSO) and 2.64 ± 0.34 (treatment: MLN4924 1 uM, 8 h).

For YPALREKSKKYSDVEVPASVTGYS [ADD1], the protein stability index came out at 4.16 ± 0.2 (treatment: DMSO) and 4.28 ± 0.25 (treatment: MLN4924 1 uM, 8 h).

With YQQQHEQQKKDLEILHQQNIHQLQ [SASS6], the protein stability index came to 4.47 ± 0.11 (treatment: DMSO) and 4.6 ± 0.19 (treatment: MLN4924 1 uM, 8 h).

On to YQSFVQFLQYYYQSGCLYRLRALG [TMEM120A], for which the protein stability index came out at 2.67 ± 0.88 (treatment: DMSO) and 3.22 ± 0.57 (treatment: MLN4924 1 uM, 8 h).

With YREESDSLGQDLRRLRQELLKTEA [DAPK3], the protein stability index amounted to 3.85 ± 0.68 (treatment: DMSO) and 3.83 ± 0.31 (treatment: MLN4924 1 uM, 8 h).

For the sequence YSGGGYYLDLPGSRQGSAEALRAL [PKD2L1], the protein stability index runs as follows: (treatment: DMSO) 2.5 ± 0.48; (treatment: MLN4924 1 uM, 8 h) 2.92 ± 0.89.

Turning to YSLGGVRSLNVASGSGKSGGYGFG [KRT71], the protein stability index amounted to 2.72 ± 0.34 (treatment: DMSO) and 3.29 ± 0.49 (treatment: MLN4924 1 uM, 8 h).

In turn, YSSGSYDSIKTEVSGCPEDLTVGR [NOL4L] yielded a protein stability index (treatment: DMSO) of 4.49 ± 0.23 and a protein stability index (treatment: MLN4924 1 uM, 8 h) of 4.44 ± 0.23.

YSWNNRCMVEIVQKYDPDKDEWHK [KLHL13]: the protein stability index runs as follows: (treatment: DMSO) 2.84 ± 0.42; (treatment: MLN4924 1 uM, 8 h) 2.86 ± 0.25.

Regarding YTRIWSLHDARLLRTIPSPYPASK [DCAF4], the protein stability index is, setting by setting: (treatment: DMSO) 2.46 ± 0.48; (treatment: MLN4924 1 uM, 8 h) 2.87 ± 0.17.

As for YYLHPLPAGAEYCSSARHPAWGHC [SCNN1D], the protein stability index by setting is: (treatment: DMSO) 2.12 ± 0.2; (treatment: MLN4924 1 uM, 8 h) 2.21 ± 0.12.
